Assay results published in patent publication US20180134765A1 (AVIDBIOTICS, published 2018).

How the values were obtained:
[1] = target: T1, biotinylated human NKG2D (Example 3) (human, UniProt P26718 78-216, limits assumed, biotinylated (site not stated)); assay: biolayer interferometry (Octet), Kd = kOFF/kON
T1 construct: also called recombinant biotinylated NKG2D; surface coated biotinylated human NKG2D
T1 sequence (looked up): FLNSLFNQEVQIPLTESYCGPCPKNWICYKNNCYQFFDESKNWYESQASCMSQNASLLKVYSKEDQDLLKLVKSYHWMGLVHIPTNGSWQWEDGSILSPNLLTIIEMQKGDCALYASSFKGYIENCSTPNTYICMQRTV

human NKG2D-Fc = target: T2, human NKG2D-Fc (human, UniProt P26718 78-216, limits assumed); assay: competition ELISA: inhibits 2 nM human NKG2D-Fc binding to plate-coated WT sMICA
T2 construct: also called natural NKG2D-Fc; not shown: Fc part
T2 sequence (looked up): T1 sequence (looked up)

[2] = target: T1, biotinylated human NKG2D (Example 3); assay: biolayer interferometry (Octet), biotinylated human NKG2D on the surface, 100 nM analyte

B1: WT α1-α2 soluble MICA protein (Example 3) (ligand)
chain: EPHSLRYNLTVLSWDGSVQSGFLTEVHLDGQPFLRCDRQKCRAKPQGQWAEDVLGNKTWDRETRDLTGNGKDLRMTLAHIKDQKEGLHSLQEIRVCEIHEDNSTRSSQHFYYDGELFLSQNLETKEWTMPQSSRAQTLAMNVRNFLKEDAMKTKTHYHAMHADCLQELRRYLKSGVVLRRTVPPMVQVTRSEASGGSGDRVTITCRASQDVSTAVAWYQQKPGKAPKLLIYSASFLYSGVPSRFSGSGSGTDFTLTISSLQPEDFATYYCQQSYTTPPTFGQGTKVEIKGGSSRSSSSGGGGSGGGGEVQLVESGGGLVQPGGSLRLSCAASGFTFTSTGISWVRQAPGKGLEWVGRIYPTNGSTNYADSVKGRFTISADTSKNTAYLQMNSLRAEDTAVYYCARTYGIYDLYVDYTEYVMDYWGQGTLVTVSSGGSSRSSSSGGGGSGGGGDIQMTQSPSSLSASGGSGQITVTCRASGFYPWNITLSWRQDGVSLSHDTQQWGDVLPDGQGTYQTWVATRISQGEEQRFTCYMEHSGQHSTHPVPSGKGSHHHHHH
notes: also called WT NKG2DL; WT MICA
Kd [1]: 13.8 nM | IC50 (human NKG2D-Fc): 19.4 nM | koff [2]: 0.0018 s⁻¹ | kon [2]: 130000 M⁻¹ s⁻¹
